These results are taken from article PMC10844685.

The assay concerns the target pyruvate kinase isoform M2 (PKM2) (human (endogenous in MDA-MB-231 and Hs578T)) (UniProt P14618). As to the kind of experiment: native gel or EMSA; total protein of MDA-MB-231 and Hs578T cells, not heat-denatured, non-denaturing loading buffer, native PAGE running buffer, western blot with anti-PKM2; cells with miR-29c-3p inhibitor, with or without TRIM9 knockdown. (In general: Mobility shift assays separate free from complexed probe on a gel.)

Sequence of pyruvate kinase isoform M2 (PKM2), P14618 1-531 (enzyme; other documents disagree on this pair) (P14618 whole entry, canonical isoform): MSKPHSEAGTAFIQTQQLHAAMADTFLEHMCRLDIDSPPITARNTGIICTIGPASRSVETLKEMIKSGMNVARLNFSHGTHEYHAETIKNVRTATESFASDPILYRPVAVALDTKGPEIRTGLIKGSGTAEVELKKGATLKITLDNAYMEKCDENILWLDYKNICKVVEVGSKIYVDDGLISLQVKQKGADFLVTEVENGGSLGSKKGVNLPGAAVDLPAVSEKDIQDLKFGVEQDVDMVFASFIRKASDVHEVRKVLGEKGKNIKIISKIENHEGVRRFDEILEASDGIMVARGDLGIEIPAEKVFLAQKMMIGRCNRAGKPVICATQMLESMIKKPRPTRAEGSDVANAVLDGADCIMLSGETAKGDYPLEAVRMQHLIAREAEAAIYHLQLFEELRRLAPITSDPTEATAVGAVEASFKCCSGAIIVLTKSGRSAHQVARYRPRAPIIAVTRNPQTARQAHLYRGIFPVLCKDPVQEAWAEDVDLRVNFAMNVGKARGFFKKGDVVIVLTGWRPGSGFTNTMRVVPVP

“pyruvate kinase isoform M2 (PKM2), P14618 1-531 (enzyme; other documents disagree on this pair)”: the stoichiometry N stood at 2.

For orientation: stoichiometry N means the number of molecules, sites or subunits per partner or assembly.
